{
  "source": "patent US20040197795A1",
  "about": "(published 2004)",
  "binders": {"B1": {"name": "\"RNasin Plus\"-brand RNase inhibitor (recombinant rat-derived RNase inhibitor protein, Promega Pt # N261) (other, UniProt P29315 1-456, looked up)", "chain": "MSLDIQCEQLSDARWTELLPLIQQYQVVRLDDCGLTEVRCKDIRSAIQANPALTELSLRTNELGDAGVGLVLQGLQNPTCKIQKLSLQNCSLTEAGCGVLPDVLRSLSTLRELHLNDNPLGDEGLKLLCEGLRDPQCRLEKLQLEYCNLTATSCEPLASVLRVKPDFKELVLSNNDFHEAGIHTLCQGLKDSACQLESLKLENCGITSANCKDLCDVVASKASLQELDLGSNKLGNTGIAALCSGLLLPSCRLRTLWLWDCDVTAEGCKDLCRVLRAKQSLKELSLAGNELKDEGAQLLCESLLEPGCQLESLWVKTCSLTAASCPHFCSVLTKNRSLFELQMSSNPLGDSGVVELCKALGYPDTVLRVLWLGDCDVTDSGCSSLATVLLANRSLRELDLSNNCMGDNGVLQLLESLKQPSCILQQLVLYDIYWTDEVEDQLRALEEERPSLRIIS"}},
  "molecular_target": "T1, RNase I, an RNase from E. coli (Promega Cat. #M4261) (E. coli, UniProt P21338 24-268)",
  "T1 sequence (looked up)": "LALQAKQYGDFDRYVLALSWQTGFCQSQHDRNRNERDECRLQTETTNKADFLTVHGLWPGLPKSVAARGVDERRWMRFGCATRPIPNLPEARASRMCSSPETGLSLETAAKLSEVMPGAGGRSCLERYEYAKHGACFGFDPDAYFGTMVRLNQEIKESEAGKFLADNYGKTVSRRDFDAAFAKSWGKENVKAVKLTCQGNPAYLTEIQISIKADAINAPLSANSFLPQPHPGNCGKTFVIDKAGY",
  "assay": "cell-based or functional assay",
  "data": [
    {"binder": "B1", "values": [
      {"measurement": "% inhibition of RNase; RNasin Plus-brand inhibitor without DTT increased 10-fold (10×); 58° C.", "result": 100, "unit": "%"}
    ]}
  ]
}
